This series deals with IgG. Nature of the series: HP-SEC of IgG with free Protein A or Protein G: complex formation and agitation-induced aggregation. The format is physicochemical. The note with it: IgG:Protein A or G ratio 1:4, RT 2 h. The method, then:
Effect of proteins A and G on aggregation of IgG. High performance size exclusion chromatography (HP-SEC) is used to verify that IgG binds with Protein A or Protein G completely. 50 µL aliquots are injected to a Tosoh TSK G 13000 SWXL Gel 3000 column ([…]×7.8 mm) and separated at a flow rate of 0.5 mL/min. The mobile phase contains 50 mM potassium phosphate and 100 mM K2SO4 at pH 7.1. The relative percentage of IgG monomer and dimer are calculated in triplicate as a percentage of the total chromatographic peak area at 280 nm. Fresh IgG is incubated with free Protein A or free Protein G, respectively, at IgG:Protein A or G ratio of 1:4 at RT for 2 h before being subjected to agitation. […] Effect of agitation of protein A and protein G complexes of IgG. The prior Example 1 is repeated, subjecting the IgG+Protein A or IgG+Protein G to agitation on a shaker at room temperature for 44 h.
(Size exclusion chromatography separates by hydrodynamic size, large species first.)

Data on one molecule can be found in US10328148B2, “Protein drug formulations and packages” (Purdue Research Foundation, priority 2010, dated 2019).

B1: Protein G: free Protein G, immunoglobulin-binding protein used as polyamino acid ligand (protein)
chain: TYKLILNGKTLKGETTTEAVDAATAEKVFKQYANDNGVDGEWTYDDATKTFTVTEKPEVIDASELTPAVTTYKLVINGKTLKGETTTEAVDAATAEKVFKQYANDNGVDGEWTYDDATKTFTVTEKPEVIDASELTPAVTTYKLVINGKTLKGETTTKAVDAETAEKAFKQYANDNGVDGVWTYDDATKTFTVTE
B1: the “Complex formation with IgG by HP-SEC” value is “formation of IgG-Protein A and IgG-Protein G complexes”.
